In patent publication US20160200791A1 (Novo Nordisk, published 2016):
Numbered stars: 1 amine (or outer) side, 2 acyl side, 3 side chain; on linkers, the order of the positions; unused ones are H or OH. Square brackets hold non-standard residues; d marks the D form. Side chains are listed from the residue outwards. Ends that are not written are not given here. * marks the point of attachment. Hexadecanoyl(16-SO3H) = O=C(CCCCCCCCCCCCCCCS(=O)(=O)O)*; C20 diacid = O=C(O)CCCCCCCCCCCCCCCCCCC(=O)*; C18 diacid = O=C(O)CCCCCCCCCCCCCCCCC(=O)*; γGlu = O=C(O)[C@H](CCC(=O)[*:2])N[*:1]; εLys = N[C@@H](CCCCN[*:1])C(=O)[*:2]; Cya = N[C@@H](CS(=O)(=O)O)C(=O)O; Trx = NC[C@H]1CC[C@H](C(=O)O)CC1; AEEA = NCCOCCOCC(=O)O; Aib = CC(C)(N)C(=O)O; Ahx = NCCCCCC(=O)O; GABA = NCCCC(=O)O

B1: GLP-1 derivative of Example 6: N{Epsilon-18}, N{Epsilon-27}, N{Epsilon-37}-triacylated [Aib8,Lys18,Glu22,Arg26,Lys27,Arg34,Lys37]-GLP-1-(7-37)-peptide (peptide)
peptide: H[Aib]EGTFTSDVSK([εLys-AEEA-AEEA-γGlu-C18 diacid])YLEEQAARK([εLys-AEEA-AEEA-γGlu-C18 diacid])FIAWLVRGRK([εLys-AEEA-AEEA-γGlu-C18 diacid])
notes: Full chemical name printed at h-0062 (it prints 'Lys8' where Lys18 is meant)
B2: GLP-1 derivative of Example 4: N{Epsilon-18}, N{Epsilon-22}, N{Epsilon-30}-triacylated [Aib8,Lys18,Lys22,Arg26,Lys30,Arg34]-GLP-1-(7-37)-peptide (peptide)
peptide: H[Aib]EGTFTSDVSK([AEEA-AEEA-Cya-Trx-Hexadecanoyl(16-SO3H)])YLEK([AEEA-AEEA-Cya-Trx-Hexadecanoyl(16-SO3H)])QAAREFIK([AEEA-AEEA-Cya-Trx-Hexadecanoyl(16-SO3H)])WLVRGRG
notes: Full chemical name printed at h-0058 (it prints 'Lys8' where Lys18 is meant)

The binders below were run against T1, human GLP-1 receptor (human, UniProt P43220 24-463) (assay: cell-based or functional assay).

First: H[Aib]EGTFTSDVSK([AEEA-AEEA-AEEA-AEEA-AEEA-εLys-εLys-C18 diacid])YLEK([AEEA-AEEA-AEEA-AEEA-AEEA-εLys-εLys-C18 diacid])QAAREFIK([AEEA-AEEA-AEEA-AEEA-AEEA-εLys-εLys-C18 diacid])WLVRGRG (Full chemical name printed at h-0082)
Second: H[Aib]EGTFTSDVSK([AEEA-AEEA-γGlu-Trx-Hexadecanoyl(16-SO3H)])YLEK([AEEA-AEEA-γGlu-Trx-Hexadecanoyl(16-SO3H)])QAAREFIK([AEEA-AEEA-γGlu-Trx-Hexadecanoyl(16-SO3H)])WLVRGRG (Full chemical name printed at h-0052)
The “In vitro potency EC50 (CRE luciferase reporter gene assay, BHK cells)” value (from here on “In vitro potency EC50”) of the first is 4.8-fold lower: 0.014 nM for the first, 0.067 nM for the second.

Compared with H[Aib]EGTFTSDVSK([AEEA-AEEA-AEEA-AEEA-AEEA-εLys-εLys-GABA-Hexadecanoyl(16-SO3H)])YLEK([AEEA-AEEA-AEEA-AEEA-AEEA-εLys-εLys-GABA-Hexadecanoyl(16-SO3H)])QAAREFIK([AEEA-AEEA-AEEA-AEEA-AEEA-εLys-εLys-GABA-Hexadecanoyl(16-SO3H)])WLVRGRG (Full chemical name printed at h-0092), H[Aib]EGTFTSDVSK([AEEA-AEEA-AEEA-AEEA-AEEA-εLys-εLys-Ahx-Hexadecanoyl(16-SO3H)])YLEK([AEEA-AEEA-AEEA-AEEA-AEEA-εLys-εLys-Ahx-Hexadecanoyl(16-SO3H)])QAAREFIK([AEEA-AEEA-AEEA-AEEA-AEEA-εLys-εLys-Ahx-Hexadecanoyl(16-SO3H)])WLVRGRG (Full chemical name printed at h-0090) is 1.8-fold higher in “In vitro potency EC50” value: 0.015 nM for the first, 0.027 nM for the second.

Compared with B1, H[Aib]EGTFTSDVSK([AEEA-AEEA-AEEA-AEEA-AEEA-εLys-εLys-C20 diacid])YLEK([AEEA-AEEA-AEEA-AEEA-AEEA-εLys-εLys-C20 diacid])QAAREFIK([AEEA-AEEA-AEEA-AEEA-AEEA-εLys-εLys-C20 diacid])WLVRGRG (Full chemical name printed at h-0080) is 6.8-fold higher in “In vitro potency EC50” value: 0.012 nM for the first, 0.082 nM for the second.

Compared with H[Aib]EGTFTSDVSK([AEEA-AEEA-εLys-εLys-Hexadecanoyl(16-SO3H)])YLEK([AEEA-AEEA-εLys-εLys-Hexadecanoyl(16-SO3H)])QAAREFIK([AEEA-AEEA-εLys-εLys-Hexadecanoyl(16-SO3H)])WLVRGRG (Full chemical name printed at h-0078), H[Aib]EGTFTSDVSK([AEEA-γGlu-AEEA-C18 diacid])YLEEQAARK([AEEA-γGlu-AEEA-C18 diacid])FIAWLVRGRK([AEEA-γGlu-AEEA-C18 diacid]) (Full chemical name printed at h-0064) is 4.2-fold higher in “In vitro potency EC50” value: 0.018 nM for the first, 0.076 nM for the second.

B2 and H[Aib]EGTFTSDVSK([AEEA-AEEA-AEEA-AEEA-AEEA-εLys-εLys-εLys-C18 diacid])YLEK([AEEA-AEEA-AEEA-AEEA-AEEA-εLys-εLys-εLys-C18 diacid])QAAREFIK([AEEA-AEEA-AEEA-AEEA-AEEA-εLys-εLys-εLys-C18 diacid])WLVRGRG (Full chemical name printed at h-0084) are within 1.5-fold of each other in “In vitro potency EC50” value: 0.014 nM for the first, 0.018 nM for the second.

What follows are binders tested against T1, human GLP-1 receptor (assay: competitive SPA binding, displacement of 125I-GLP-1(7-36)NH2 from BHK membranes with human GLP-1R, high HSA (2.0%)).
Description: (§1) For the receptor binding assay in the presence of low HSA (0.005%) 50 μl of the assay buffer was added to each well of an assay plate. Assay continued with step 3. […] For the receptor binding assay in the presence of high HSA (2%) 50 μl of the 8% albumin stock was added to each well of an assay plate. Assay continued with step 3. […] Cell membrane aliquots were thawed and diluted to their working concentration. Fifty μl were added to each well in the assay plate. […] WGA SPA beads were suspended in assay buffer at 20 mg/ml. The suspension was diluted to 10 mg/ml in assay buffer just prior to addition to the assay plate. Fifty μl were added to each well in the assay plate. […] A 25 μl aliquot was reserved for measuring total counts/well. […] The assay plate was incubated for 2 h at 30° C. […] The assay plate was centrifuged for 10 min. […] The assay plate was read in a Packard TopCount NXT instrument.

H[Aib]EGTFTSDVSK([AEEA-AEEA-AEEA-AEEA-AEEA-εLys-εLys-C18 diacid])YLEK([AEEA-AEEA-AEEA-AEEA-AEEA-εLys-εLys-C18 diacid])QAAREFIK([AEEA-AEEA-AEEA-AEEA-AEEA-εLys-εLys-C18 diacid])WLVRGRG (Full chemical name printed at h-0082) and H[Aib]EGTFTSDVSK([AEEA-AEEA-γGlu-Trx-Hexadecanoyl(16-SO3H)])YLEK([AEEA-AEEA-γGlu-Trx-Hexadecanoyl(16-SO3H)])QAAREFIK([AEEA-AEEA-γGlu-Trx-Hexadecanoyl(16-SO3H)])WLVRGRG (Full chemical name printed at h-0052) are within 1.5-fold of each other in IC50: 381 nM for the first, 289 nM for the second.

H[Aib]EGTFTSDVSK([AEEA-AEEA-AEEA-AEEA-AEEA-εLys-εLys-GABA-Hexadecanoyl(16-SO3H)])YLEK([AEEA-AEEA-AEEA-AEEA-AEEA-εLys-εLys-GABA-Hexadecanoyl(16-SO3H)])QAAREFIK([AEEA-AEEA-AEEA-AEEA-AEEA-εLys-εLys-GABA-Hexadecanoyl(16-SO3H)])WLVRGRG (Full chemical name printed at h-0092) and H[Aib]EGTFTSDVSK([AEEA-AEEA-AEEA-AEEA-AEEA-εLys-εLys-Ahx-Hexadecanoyl(16-SO3H)])YLEK([AEEA-AEEA-AEEA-AEEA-AEEA-εLys-εLys-Ahx-Hexadecanoyl(16-SO3H)])QAAREFIK([AEEA-AEEA-AEEA-AEEA-AEEA-εLys-εLys-Ahx-Hexadecanoyl(16-SO3H)])WLVRGRG (Full chemical name printed at h-0090) are within 1.5-fold of each other in IC50: 96 nM for the first, 100 nM for the second.

Going from B1 to H[Aib]EGTFTSDVSK([AEEA-AEEA-AEEA-AEEA-AEEA-εLys-εLys-C20 diacid])YLEK([AEEA-AEEA-AEEA-AEEA-AEEA-εLys-εLys-C20 diacid])QAAREFIK([AEEA-AEEA-AEEA-AEEA-AEEA-εLys-εLys-C20 diacid])WLVRGRG (Full chemical name printed at h-0080), the IC50 falls from greater than 1000 nM to 426 nM.

Compared with H[Aib]EGTFTSDVSK([AEEA-AEEA-εLys-εLys-Hexadecanoyl(16-SO3H)])YLEK([AEEA-AEEA-εLys-εLys-Hexadecanoyl(16-SO3H)])QAAREFIK([AEEA-AEEA-εLys-εLys-Hexadecanoyl(16-SO3H)])WLVRGRG (Full chemical name printed at h-0078), H[Aib]EGTFTSDVSK([AEEA-γGlu-AEEA-C18 diacid])YLEEQAARK([AEEA-γGlu-AEEA-C18 diacid])FIAWLVRGRK([AEEA-γGlu-AEEA-C18 diacid]) (Full chemical name printed at h-0064) is higher in IC50: 100 nM for the first, greater than 1000 nM for the second.

Compared with B2, H[Aib]EGTFTSDVSK([AEEA-AEEA-AEEA-AEEA-AEEA-εLys-εLys-εLys-C18 diacid])YLEK([AEEA-AEEA-AEEA-AEEA-AEEA-εLys-εLys-εLys-C18 diacid])QAAREFIK([AEEA-AEEA-AEEA-AEEA-AEEA-εLys-εLys-εLys-C18 diacid])WLVRGRG (Full chemical name printed at h-0084) is 2.5-fold lower in IC50: 351 nM for the first, 143 nM for the second.

The binders below were run against T1, human GLP-1 receptor (assay: competitive SPA binding, displacement of 125I-GLP-1(7-36)NH2 from BHK membranes with human GLP-1R, low HSA (max. 0.001%)).
Description: as §1

Compared with H[Aib]EGTFTSDVSK([AEEA-AEEA-AEEA-AEEA-AEEA-εLys-εLys-C18 diacid])YLEK([AEEA-AEEA-AEEA-AEEA-AEEA-εLys-εLys-C18 diacid])QAAREFIK([AEEA-AEEA-AEEA-AEEA-AEEA-εLys-εLys-C18 diacid])WLVRGRG (Full chemical name printed at h-0082), H[Aib]EGTFTSDVSK([AEEA-AEEA-γGlu-Trx-Hexadecanoyl(16-SO3H)])YLEK([AEEA-AEEA-γGlu-Trx-Hexadecanoyl(16-SO3H)])QAAREFIK([AEEA-AEEA-γGlu-Trx-Hexadecanoyl(16-SO3H)])WLVRGRG (Full chemical name printed at h-0052) is 5.7-fold higher in IC50: 0.4 nM for the first, 2.3 nM for the second. The first is the more potent here.

Going from H[Aib]EGTFTSDVSK([AEEA-AEEA-AEEA-AEEA-AEEA-εLys-εLys-GABA-Hexadecanoyl(16-SO3H)])YLEK([AEEA-AEEA-AEEA-AEEA-AEEA-εLys-εLys-GABA-Hexadecanoyl(16-SO3H)])QAAREFIK([AEEA-AEEA-AEEA-AEEA-AEEA-εLys-εLys-GABA-Hexadecanoyl(16-SO3H)])WLVRGRG (Full chemical name printed at h-0092) to H[Aib]EGTFTSDVSK([AEEA-AEEA-AEEA-AEEA-AEEA-εLys-εLys-Ahx-Hexadecanoyl(16-SO3H)])YLEK([AEEA-AEEA-AEEA-AEEA-AEEA-εLys-εLys-Ahx-Hexadecanoyl(16-SO3H)])QAAREFIK([AEEA-AEEA-AEEA-AEEA-AEEA-εLys-εLys-Ahx-Hexadecanoyl(16-SO3H)])WLVRGRG (Full chemical name printed at h-0090), the IC50 rises from 0.24 nM to 0.36 nM (1.5-fold).

Going from B1 to H[Aib]EGTFTSDVSK([AEEA-AEEA-AEEA-AEEA-AEEA-εLys-εLys-C20 diacid])YLEK([AEEA-AEEA-AEEA-AEEA-AEEA-εLys-εLys-C20 diacid])QAAREFIK([AEEA-AEEA-AEEA-AEEA-AEEA-εLys-εLys-C20 diacid])WLVRGRG (Full chemical name printed at h-0080), the IC50 rises from 0.4 nM to 11 nM (28-fold).

First: H[Aib]EGTFTSDVSK([AEEA-AEEA-εLys-εLys-Hexadecanoyl(16-SO3H)])YLEK([AEEA-AEEA-εLys-εLys-Hexadecanoyl(16-SO3H)])QAAREFIK([AEEA-AEEA-εLys-εLys-Hexadecanoyl(16-SO3H)])WLVRGRG (Full chemical name printed at h-0078)
Second: H[Aib]EGTFTSDVSK([AEEA-γGlu-AEEA-C18 diacid])YLEEQAARK([AEEA-γGlu-AEEA-C18 diacid])FIAWLVRGRK([AEEA-γGlu-AEEA-C18 diacid]) (Full chemical name printed at h-0064)
The IC50 of the first is 3.7-fold lower: 0.19 nM for the first, 0.7 nM for the second.

Going from B2 to H[Aib]EGTFTSDVSK([AEEA-AEEA-AEEA-AEEA-AEEA-εLys-εLys-εLys-C18 diacid])YLEK([AEEA-AEEA-AEEA-AEEA-AEEA-εLys-εLys-εLys-C18 diacid])QAAREFIK([AEEA-AEEA-AEEA-AEEA-AEEA-εLys-εLys-εLys-C18 diacid])WLVRGRG (Full chemical name printed at h-0084), the IC50 falls from 1.6 nM to 0.08 nM (20-fold). The second is the more potent here.
